Results published in a protein production outcome set (Wang et al. 2014).

Experiment: label from the status in PepcDB records

Question: For “TTKKRVFHFGKGKSEGNKTMKELLGGKGANLAEMASIGLSVPPGFTVSTEACQQYQDAGCALPAGLWAEIVDGLQWVEEYMGATLGDPQRPLLLSVRSGAAVSMPGMMDTVLNLGLNDEVAAGLAAKSGERFAYDSFRRFLDMFGNVVMDIPRSLFEEKLEHMKESKGLKNDTDLTASDLKELVGQYKEVYLSAKGEPFPSDPKKQLELAVLAVFNSWESPRAKKYRSINQITGLRGTAVNVQCMVFGNMGNTSGTGVLFTRNPNTGEKKLYGEFLVNAQGEDVVAGIRTPEDLDAMKNLMPQAYDELVENCNILESHYKEMQDIEFTVQENRLWMLQCRTGKRTGKSAVKIAVDMVNEGLVEPRSAIKMVEPGHLDQLLHPQFENPSAYKDQVIATGLPASPGAAVGQVVFTAEDAEAWHSQGKAAILVRAETSPEDVGGMHAAVGILTERGGMTSHAAVVARGWGKCCVSGCSGIRVNDAEKLVTIGGHVLREGEWLSLNGSTGEVILGKQPLSPPALSGDLGTFMAWVDDVRKLKVLANADTPDDALTARNNGAQGIGLCRTEHMFFASDERIKAVRQMIMAPTLELRQQALDRLLPYQRSDFEGIFRAMDGLPVTIRLLDPPLHEFLPEGNIEDIVSELCAETGANQEDALARIEKLSEVNPMLGFRGCRLGISYPELTEMQARAIFEAAIAMTNQGVQVFPEIMVPLVGTPQELGHQVTLIRQVAEKVFANVGKTIGYKVGTMIEIPRAALVADEIAEQAEFFSFGTNDLTQMTFGYSRDDVGKFIPVYLAQGILQHDPFEVLDQRGVGELVKFATERGRKARPNLKVGICGEHGGEPSSVAFFAKAGLDYVSCSPFRVPIARLAAAQVLV”, which protein production is on record?
Answer: The protein production was “not failed”.

Question: Which protein production does the source give for “MGDPFLIGGVIIACFVAFNIGGATTGPAFGPAVGANVLSKTTAGALMAVAFFGGAYTIGRRVVDTLGTELVHDPSVFTLEASIIVLFFIGGALLVGNLSGAPASTSMTAVGAIIGLGLASGELNFAVVGEILAWWILSPIIGFWLAVMVGRYGYEALDRRVAIEQSDGPLLAFERVELGRWPVVRLRESPVVRMERISPKLWPALGPNTSWREAVGTAVLVSIGFLMAFSSGTSNIANAIAPLVGSGALAMNPGILIGCGAVAVGALTIARRTMETLGNDITDLPLTAAIVVALLSSLIIIALSALGIPASFVVVATLCIIGLGWGRSTQAVSVAEAVRGDVSPQVSVGALARGDDATVGTVRSQSAPQGASRRTAPVRSDLFDPGTSVRVVLMQNVVPLLATGGSYLTFWLLPVGG” here?
Answer: The protein production was “failed”.

Question: For “MSSNNVTTDVVSVDEQAFENAGGQAVDEDGFPVVDETPAFEAEVEQETQAKVDANHPDGIADTSEDRIHGVTLEQEERIRAREAELERISAQAELGTQDGREQRTRAVAAEGSTERRREFQQRAASVEPMADPERDDPRAELSQDELATVNTEADRLATRLDGWSRAAISRRLAEAIVDGRDLTSAVVRVFEELQTAPGGTVPIDALEDIDRKEVSVEGRVTQLWEPSSPSIAQVGLIEDESGRTKLTSWKASDAPWIEEGERVRIHGAAKNWYNGRVSVAVTGWSTLHFPERGRWWDE”, which protein production is on record?
Answer: Its protein production is “failed”.

Question: With “MNIPTTTTKGEQAKSQLIAAALAQFGEYGLHATTRDIAALAGQNIAAITYYFGSKEDLYLACAQWIADFLGEKFRPHAEKAERLFSQPAPDRDAIRELILLACKNMIMLLTQEDTVNLSKFISREQLSPTSAYQLVHEQVIDPLHTHLTRLVAAYTGCDANDTRMILHTHALLGEVLAFRLGKETILLRTGWPQFDEEKAELIYQTVTCHIDLILHGLTQRSLD” as the sequence, how does the protein production read?
Answer: The protein production was “not failed”.

Question: Which protein production does the source give for “MATGGLAIIQSMKHKLPPSERKLADYILAHPHKAIESTVNEISALANSSDAAVIRLCKSLGLKGFQDLKMRVAGDLAKPTFQGYRDIVPHEPLPSISEKTAGNAIQAIQDTSDLMDYKELERAVSLLLKAHTVHFIGLGASGIVAKDAQQKWLRIHKQATAFTDTHLVASLIANADKDDIVFAISFSGETQEIVELFAMAKEKGITTISLTQFSQTSVSALADVPLYTAHSNEALIRSAATSSRLAQLFIIDVLFLGMAAEQYETTTGYIDKTRAAIQSMRIK” here?
Answer: Its protein production is “not failed”.

Question: For “MTGVLTADRPPKPAAPRRYTVALARDEDDVRAAQRLRHDVFAGEMGALLASPQPGHDVDAFDAYCDHLLVREETTGQVVGTYRLLPPERAAVAGRLYAESEFDLAALDPIRSSLVEVGRSCVHPDHRDGAVIGLVWAGIARYMTDRGHAWLAGCCSLPLADGGALAAGAWDRVRTKHLAPEEYRVRPLLPWVPRPAAPAARTELPALLRGYLRLGAWVCGEPAHDVDFGVADLYVLLPMNRVDPRYLRHFLSLAPA”, which protein production is on record?
Answer: Its protein production is “failed”.

Question: Which protein production does the source give for “MGKEYVVIGLGRFGGSIVRELNALDMDVMAIDHDENRVNEYSDIATHAVVADTTDEAVMKSLGIRNFDHVIVAIGENIQSSTLTTLILKELGVKKVTAKAQNDYHAKILNKIGADTVVHPERDMGRRIAHNVASASVLDYLELADEHSIVELKATEKMAGQSIIDLDIRAQYGINIIAIKRGKEFIISPNPNINLEIGDILIMIGHDNDLNRFEKNIATR” here?
Answer: Its protein production is “failed”.
